Patent US20250250334A1 (MEDICOVESTOR, published 2025)
Each block holds one binder with its values, some of them ahead of it.

Tests used:
[1] = molecular target: T1, fusion protein containing the extracellular domain of human FRalpha and a polyhistidine tag (human, UniProt P15328 25-233); experiment: ELISA, coated human FRalpha ECD-His
T1 construct: extracellular domain; Coated on ELISA plates; also called human FRalpha extracellular domain; not shown: polyhistidine tag
Method: (§1) The affinity of each IgG1 for FRalpha was confirmed by ELISA. Briefly, a fusion protein containing the extracellular domain of human FRalpha and a polyhistidine tag was used to coat ELISA plates, which were washed three times with phosphate-buffered saline (PBS) containing 0.1 percent polysorbate 20 (PBST), then blocked with PBS containing 5 percent powdered milk (PBSM), and then washed three more times with PBST. Wells were then incubated with antibodies at varying concentrations for 60 minutes at room temperature in 1 percent PBSM. Wells were then washed three times with PBST, after which the secondary, horseradish-peroxidase-conjugated antibody anti-human-IgG-Fc-HRP (ab97225, Abcam, United Kingdom) was added at a 1:8000 dilution in 1 percent PBSM for 50 minutes at room temperature. The wells were then washed six times with PBST, after which 3,3′, 5,5″-tetramethylbenzidine (TMB) was added. The reaction was stopped with 2 molar sulfuric acid, and the TMB diamine product was quantified at 450 nanometers in a plate reader. Results are depicted in FIG. 2.

[2] = molecular target: T2, fusion protein containing the extracellular domain of cynomolgus FRalpha and a polyhistidine tag (cynomolgus, UniProt A0A2K5U044 25-233); experiment: ELISA, coated cynomolgus FRalpha ECD-His
T2 construct: extracellular domain; Coated on ELISA plates; also called cynomolgus FRalpha extracellular domain; not shown: polyhistidine tag
T2 sequence (A0A2K5U044 entry or part of it): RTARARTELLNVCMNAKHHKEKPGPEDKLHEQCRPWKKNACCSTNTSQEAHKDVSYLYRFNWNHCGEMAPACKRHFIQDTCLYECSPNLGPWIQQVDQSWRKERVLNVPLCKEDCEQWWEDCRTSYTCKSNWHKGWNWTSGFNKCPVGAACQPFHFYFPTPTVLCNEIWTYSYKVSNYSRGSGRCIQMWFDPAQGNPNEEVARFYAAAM
Method: as §1
The ELISA of the preceding paragraph was repeated with a fusion protein containing the extracellular domain of cynomolgus FRalpha and a polyhistidine tag. Results are depicted in FIG. 3.

[3] = molecular target: T3, human FRalpha expressed on cells (transfected HEK293 cells; SKOV3 human ovarian cancer cells) (human, UniProt P15328 25-234); experiment: flow cytometry, HEK293 cells transfected to express FRalpha
T3 construct: whole, on cells; also called human folate receptor alpha
T3 sequence (P15328 25-234): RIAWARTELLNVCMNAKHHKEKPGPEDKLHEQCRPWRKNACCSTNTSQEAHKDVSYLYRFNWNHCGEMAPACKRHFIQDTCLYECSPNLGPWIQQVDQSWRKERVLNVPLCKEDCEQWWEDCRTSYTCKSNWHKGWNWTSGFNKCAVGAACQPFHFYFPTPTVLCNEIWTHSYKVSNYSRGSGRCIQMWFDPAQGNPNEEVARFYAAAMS
Method: (§2) The affinity of each antibody was then assessed by flow cytometry. Briefly, HEK293 cells transfected to express FRalpha were washed with fluorescence-activated cell sorting (FACS) buffer, to which the IgGs were added at varying concentrations and incubated at 4 degrees Celsius for 60 minutes. The cells were then centrifuged and washed twice in FACS buffer. A phycoerythrin-labelled anti-human IgG, Fcgamma antibody (109-115-098; Jackson ImmunoResearch, Pennsylvania, United States) was then added to the cells at a 1:200 dilution and incubated at 4 degrees Celsius for 30 minutes. The cells were then washed, resuspended in FACS buffer, and counted by flow cytometry. Results are depicted in FIG. 4.

[4] = molecular target: T3, human FRalpha expressed on cells …; experiment: flow cytometry, SKOV3 human ovarian cancer cells that express FRalpha
Method: as §2
The flow cytometry experiment of the preceding paragraph was repeated with a human ovarian cancer cell line that expresses FRalpha, SKOV3. Results are depicted in FIGS. 5A and 5B. […] The antibody according to SEQ ID NO: 3-12 was then designated the lead antibody for further development.

T1 sequence (P15328 25-233 limits assumed): as the sequence (A0A2K5U044 entry or part of it) above, with T2I, R4W, K37R, P146A, Y171H counted along it

EC50 [1]: ~0.12 nM
EC50 [2]: ~0.16 nM
EC50 [3]: ~4 nM
B1: Mirvetuximab (antibody, V domains shown)
VH: QVQLVQSGAEVVKPGASVKISCKASGYTFTGYFMNWVKQSPGQSLEWIGRIHPYDGDTFYNQKFQGKATLTVDKSSNTAHMELLSLTSEDFAVYYCTRYDGSRAMDYWGQGTTVTVSS
VL: DIVLTQSPLSLAVSLGQPAIISCKASQSVSFAGTSLMHWYHQKPGQQPRLLIYRASNLEAGVPDRFSGSGSKTDFTLTISPVEAEDAATYYCQQSREYPYTFGGGTKLEIK

EC50 [1]: ~0.05 nM
EC50 [2]: ~0.06 nM
EC50 [3]: ~5 nM
EC50 [4]: < 1 nM
B2: lead fully-human anti-FRalpha IgG1 antibody (antibody according to SEQ ID NO: 3-12) (antibody, V domains shown)
VH: EVQLLESGGGLVKPGGSLRLSCAASGFTFSSYTMNWVRQAPGKGLEWVSSISSGGGYIYYADSVKDRFTISRDNAKNSLYLQMNSLRAEDTAVYYCAKGDTIMIISAWGQGTTVTVSS
VL: DIQLTQSPSTLSASVGDRVTITCRASQSISSWLAWHQQKPGKAPKLLIYAASSLQNGVPSRFSGSGFGTDFTLTISSLQPEDFATYYCQQASSFPLTFGGGTKVEIKR
notes: Fully human IgG1/kappa; also called lead antibody
